Reference: US20110135647

Target: T1, C-terminal recombinant protein of F3374 (437-730 amino acids, His-tag)
T1 chain: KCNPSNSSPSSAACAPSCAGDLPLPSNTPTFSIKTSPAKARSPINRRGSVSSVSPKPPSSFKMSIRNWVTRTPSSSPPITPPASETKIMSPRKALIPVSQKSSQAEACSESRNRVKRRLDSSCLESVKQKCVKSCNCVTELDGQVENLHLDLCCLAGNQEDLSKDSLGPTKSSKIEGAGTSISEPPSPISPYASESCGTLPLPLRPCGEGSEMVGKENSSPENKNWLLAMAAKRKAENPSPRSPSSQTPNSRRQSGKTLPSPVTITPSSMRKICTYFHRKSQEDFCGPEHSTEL

B1: full-length recombinant protein of AURKB (Upstate) (protein)
chain: MAQKENSYPWPYGRQTAPSGLSTLPQRVLRKEPVTPSALVLMSRSNVQPTAAPGQKVMENSSGTPDILTRHFTIDDFEIGRPLGKGKFGNVYLAREKKSHFIVALKVLFKSQIEKEGVEHQLRREIEIQAHLHHPNILRLYNYFYDRRRIYLILEYAPRGELYKELQKSCTFDEQRTATIMEELADALMYCHGKKVIHRDIKPENLLLGLKGELKIADFGWSVHAPSLRRKTMCGTLDYLPPEMIEGRMHNEKVDLWCIGVLCYELLVGNPPFESASHNETYRRIVKVDLKFPASVPMGAQDLISKLLRHNPSERLPLAQVSAHPWVRANSRRVLPPSALQSVA
  in vitro kinase assay (32P, autoradiography): found phosphorylation of the F3374 protein by AURKB in vitro
